Legend:
WT TMEM55B region 80-166 = test: In vitro pulldown of untagged TMEM55B with His-tagged bait peptides; format: binding; details: 10 μM bait, 10 μM prey, Ni2+-agarose, 20 mM Tris pH 8.0, 300 mM NaCl, 20 mM imidazole, 15 minutes, SDS-PAGE, Coomassie, qualitative
Description: Figure 5: In vitro pulldowns of TMEM55B with TBM peptides. (A) Domain organization of TMEM55B interactors depicting the sequence context of the TBM. Regions that are α-helical have been drawn as cylinders; α/βfolds are shown as rectangles; and unstructured segments are zigzag lines. (B) Cartoon depiction of the in vitro pulldown strategy using His-tagged peptides. […] As a control, the R151E variant of TMEM55B was used, which abolishes the interactions with RILPL1 (bottom panel). […] Protein/peptide concentrations were 10μM (see Methods) and visualization was enabled by Coomassie Brilliant Blue G250.
Given that the TBMs reside in flexible regions of the adaptor proteins (Figure 5A), peptides should be able to mimic their interactions with TMEM55B. Peptides corresponding to the potential TBMs were synthesized with an N-terminal hexahistidine tag to enable in vitro pulldowns of TMEM55B (80-166; Figure 5B). Slightly extended peptides beyond the minimal TBMs were generated to preclude any structural or conformational restrictions on the interaction with TMEM55B. The peptide TBM from RILPL1 was used as a positive control, and the mutant R151E™ of TMEM55B provided a negative control. Peptides run on conventional SDS-PAGE gels are generally not visible in this assay. […]

[1] = target: T1, TMEM55B (residues 80-160) (Homo sapiens, UniProt Q86T03); test: Isothermal titration calorimetry of TBM peptides / OCRL PH domain with TMEM55B; format: binding; details: ITC; titration shown in the figure panel (Figure 1G / Figure 6B); value printed in the picture, ±% = fitting error
T1 construct: injected into a cell containing TMEM55B (residues 80-160); hexa-Histidine (N); made in house; host or cells: E. coli BL21(DE3)
T1 sequence (Q86T03 73-153): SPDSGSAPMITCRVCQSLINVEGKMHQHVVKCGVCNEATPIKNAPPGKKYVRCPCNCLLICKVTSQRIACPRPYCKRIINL
Description: Calorimetry experiments were performed using an ITC200 (Particular Sciences) as described in dx.doi.org/10.17504/protocols.io.j8nlkr7x6v5r/v1. Experiments were performed 3 or more times for each interacting pair. The TBM peptides were dialyzed together with TMEM55B80-160 (20 mM) Tris-HCl, 150mM NaCl, 5mM and 1mM DTT, pH 7.5). Protein concentrations were calculated based on their absorbance at 280nm using a ND-1000 NanoDrop spectrophotometer (Thermo Scientific), peptide concentration was determined by adding buffer to a known amount of lyophilized peptide factoring in their purity. The proteins were centrifuged at 13,100 x g for 10 minutes prior to the determination of protein concentration and ITC analyses. […]. We used Origin 7.0 with the ITC plugin for data processing, and assumed a single binding mode for data fitting.

Kd [1]: 900 nM
B1: OCRL-PH domain: recombinant His-tagged PH domain, residues 1-129 of OCRL, ~16kDa (protein, UniProt Q01968 1-129, looked up, fragment)
chain: MEPPLPVGAQPLATVEGMEMKGPLREPCALTLAQRNGQYELIIQLHEKEQHVQDIIPINSHFRCVQEAEETLLIDIASNSGCKIRVQGDWIRERRFEIPDEEHCLKFLSAVLAAQKAQSQLLVPEQKDS
modifications: PH domain His tag
notes: recombinant His-tagged PH domain, residues 1-129 of OCRL, ~16kDa
pulldown of untagged WT TMEM55B (80-166) by His-tagged bait (WT TMEM55B region 80-166): interacts robustly
pulldown of untagged WT TMEM55B (80-166) by His-tagged bait (WT TMEM55B region 80-166; listed as PH domain of OCRL1): successfully pulldown

— article doi:10.1101/2025.08.19.670962, “Structural basis for binding of RILPL1 to TMEM55B reveals a lysosomal platform for adaptor assembly through a conserved TBM motif” (bioRxiv, 2025)
